Measurements published in article PMC12102759.

Legend:
Assay in all cases: fluorescence polarisation
[1] = molecular target: FITC-labeled MBOAT1 probe peptide FITC-… (human)
[2] = molecular target: FITC-labeled PRDM14 probe peptide FITC-… (human)
[3] = molecular target: FITC-labeled NCOA2 probe peptide FITC-… (human)
[4] = molecular target: FITC-labeled NKRF probe peptide FITC-…
[5] = molecular target: SARS‐CoV‐2 NSP3 UBl1 domain (819–925), tag cleaved, for FP (SARS-CoV-2) (UniProt P0DTD1)
[6] = molecular target: SARS‐CoV‐2 NSP9 (4141–4253), tag cleaved, for FP (SARS-CoV-2) (UniProt P0DTD1)
[7] = molecular target: SARS‐CoV‐2 NSP3 SUD‐M domain (1356–1493), tag cleaved, for FP (SARS-CoV-2) (UniProt P0DTD1)

Substance: SARS-CoV-2 NSP3 ADRP domain (domain or fragment)
- Kd [1]: 51 µM

Substance: SARS-CoV-2 NSP3 SUD-M domain (domain or fragment)
- Kd [2]: 23 µM

Substance: SARS-CoV-2 NSP3 UBl1 domain (domain or fragment)
- Kd [3]: 67 µM

Substance: SARS-CoV-2 non-structural protein 9 (NSP9) (natural protein)
- Kd [4]: 15.5 µM

Substance: wild‐type NCOA2_(1073–1088) peptide (from UniProt Q15596 1073-1088)
- Kd [5]: 39 µM

Substance: wild‐type NOTCH4 peptide (synthetic)
- Kd [6]: 72 µM

Substance: wild‐type PRDM14 peptide (synthetic)
- Kd [7]: 74 µM
